Assay results reported in patent publication US20240181007A1, “COMPOSITIONS AND METHODS FOR TREATING PULMONARY HYPERTENSION” (Acceleron Pharma Inc., priority 2021, published 2024).

What was measured:
[1] = target: T1, BMP9 (Homo sapiens, UniProt Q9UK05); assay: Biacore-based binding assay (surface plasmon resonance), BMP9; settings: for binding to BMP9 compared to unmodified ActRIIB-Fc (in words): SPR 37° C., compared to ActRIIB-G1Fc / ActRIIB-Fc homodimer
T1 sequence (Q9UK05 320-429): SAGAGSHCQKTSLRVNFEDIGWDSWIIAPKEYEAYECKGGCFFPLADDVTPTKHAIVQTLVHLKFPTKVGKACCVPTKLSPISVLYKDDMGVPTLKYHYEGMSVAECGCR
Procedure: (§1) To determine ligand binding profiles of variant ActRIIB-Fc homodimers, a Biacore™-based binding assay was used to compare ligand binding kinetics of certain variant ActRIIB-Fc polypeptides. ActRIIB-Fc polypeptides to be tested were independently captured onto the system using an anti-Fc antibody. Ligands were then injected and allowed to flow over the captured receptor protein. ActRIIB-G1Fc was used as the control polypeptide.
(§2) To determine ligand binding profiles of variant ActRIIB-Fc homodimers, a Biacore™-based binding assay was used to compare ligand binding kinetics of certain variant ActRIIB-Fc polypeptides. ActRIIB-Fc polypeptides to be tested were independently captured onto the system using an anti-Fc antibody. Ligands were then injected and allowed to flow over the captured receptor protein.
(§3) A Biacore™-based binding assay was used to compare the ligand binding kinetics of an ActRIIB-Fc:ActRIIB(L79E)-Fc heterodimer with those of unmodified ActRIIB-Fc homodimer. Fusion proteins were captured onto the system using an anti-Fc antibody. Ligands were then injected and allowed to flow over the captured receptor protein at 37° C. Results are summarized in the table below, in which ligand off-rates (kd) most indicative of effective ligand traps are denoted in bold.

[2] = target: T2, Activin B (Homo sapiens, UniProt P09529); assay: Biacore-based binding assay (surface plasmon resonance), activin B; settings: for affinity for activin B compared to unmodified ActRIIB-Fc (in words): SPR 37° C., compared to ActRIIB-G1Fc / ActRIIB-Fc homodimer
T2 sequence (P09529 293-407): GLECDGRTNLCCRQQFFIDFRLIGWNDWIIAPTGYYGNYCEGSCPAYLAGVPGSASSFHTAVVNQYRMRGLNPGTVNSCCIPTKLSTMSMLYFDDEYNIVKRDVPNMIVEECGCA
Procedure: as §1, §3

[3] = target: T3, GDF11 (Homo sapiens, UniProt O95390); assay: Biacore-based binding assay (surface plasmon resonance), GDF11
T3 sequence (O95390 299-407): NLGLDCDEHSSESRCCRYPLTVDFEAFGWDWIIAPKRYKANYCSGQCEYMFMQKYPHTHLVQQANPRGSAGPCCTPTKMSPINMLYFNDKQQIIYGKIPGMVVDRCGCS
Procedure: as §1, §2, §3

[4] = target: T4, Activin A (Homo sapiens, UniProt P08476); assay: Biacore-based binding assay (surface plasmon resonance), activin A; settings: for activin A binding compared to ActRIIB-G1Fc (in words): SPR 37° C., FIGS. 8A and 8B
T4 sequence (P08476 311-426): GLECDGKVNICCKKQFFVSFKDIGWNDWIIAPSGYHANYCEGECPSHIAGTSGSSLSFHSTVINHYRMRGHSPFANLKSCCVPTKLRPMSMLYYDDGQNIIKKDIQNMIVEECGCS
Procedure: as §1, §2, §3

[5] = target: T5, BMP10 (Homo sapiens, UniProt O95393); assay: Biacore-based binding assay (surface plasmon resonance), BMP10; settings: for BMP10 binding compared to ActRIIB-G1Fc (in words): SPR 37° C., FIGS. 8A and 8B
T5 sequence (O95393 317-424): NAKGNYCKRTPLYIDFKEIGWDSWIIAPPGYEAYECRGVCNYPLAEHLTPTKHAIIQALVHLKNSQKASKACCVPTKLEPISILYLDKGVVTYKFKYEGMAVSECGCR
Procedure: as §1, §3

[6] = target: T6, GDF8 (Homo sapiens, UniProt O14793); assay: Biacore-based binding assay (surface plasmon resonance), GDF8
T6 sequence (O14793 267-375): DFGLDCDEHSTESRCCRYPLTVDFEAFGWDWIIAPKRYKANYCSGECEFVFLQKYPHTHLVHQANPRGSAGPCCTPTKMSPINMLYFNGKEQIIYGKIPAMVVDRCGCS
Procedure: as §1, §3

[7] = target: T7, BMP6 (Homo sapiens, UniProt P22004); assay: Biacore-based binding assay (surface plasmon resonance), BMP6; settings: 37° C., capture by anti-Fc antibody
T7 sequence (P22004 375-513): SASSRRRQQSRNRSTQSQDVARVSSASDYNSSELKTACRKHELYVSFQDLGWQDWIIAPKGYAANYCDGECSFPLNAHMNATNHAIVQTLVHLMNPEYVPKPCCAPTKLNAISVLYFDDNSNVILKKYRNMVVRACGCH
Procedure: as §3

[8] = target: T8, GDF3 (Homo sapiens, UniProt Q9NR23); assay: Biacore-based binding assay (surface plasmon resonance), GDF3; settings: 37° C., capture by anti-Fc antibody
T8 sequence (Q9NR23 251-364): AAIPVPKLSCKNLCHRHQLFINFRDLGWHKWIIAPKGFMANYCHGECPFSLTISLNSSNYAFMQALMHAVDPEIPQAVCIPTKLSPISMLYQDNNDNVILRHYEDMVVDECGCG
Procedure: as §3

[9] = target: T9, GDF11 (UniProt O95390 299-407); assay: cell-based or functional assay
T9 construct: also called Growth and differentiation factor-11; BMP11
T9 sequence (looked up): T3 sequence (O95390 299-407)

[10] = target: T10, activin A (UniProt P08476 311-426); assay: cell-based or functional assay
T10 construct: Soluble ligand injected in SPR or added in the reporter assay
T10 sequence (looked up): T4 sequence (P08476 311-426)

[11] = target: T11, BMP9 (UniProt Q9UK05 320-429); assay: cell-based or functional assay
T11 sequence (looked up): T1 sequence (Q9UK05 320-429)

[12] = 37° C., capture by anti-Fc antibody, Transient*: indeterminate due to transient nature of interaction
[13] = 37° C., capture by anti-Fc antibody
[14] = SPR 37° C., compared to ActRIIB-G1Fc / ActRIIB-Fc homodimer

In the case of “ActRIIB-Fc homodimer: unmodified ActRIIB-Fc homodimer, comparator of the heterodimer in Table 6”, the “ka BMP9” value [1, 12] is reported as 5e+06 M⁻¹ s⁻¹, the “kd BMP9” value [1, 12] is reported as 0.0013 s⁻¹ and the “ka Activin B” value [2, 13] is reported as 8.1e+06 M⁻¹ s⁻¹. For the same substance, the “kd Activin B” value [2, 13] was 6.6e-05 s⁻¹, the “ka GDF11” value [3, 13] was 4.1e+07 M⁻¹ s⁻¹ and the “kd GDF11” value [3, 13] was 0.00017 s⁻¹. For the same substance, the “ka Activin A” value [4, 13] was 7.4e+06 M⁻¹ s⁻¹, the “kd Activin A” value [4, 13] was 0.00019 s⁻¹ and the “ka BMP10” value [5, 13] was 5.1e+07 M⁻¹ s⁻¹. For the same substance, the “kd BMP10” value [5, 13] was 0.0002 s⁻¹, the “ka GDF8” value [6, 13] was 3.8e+06 M⁻¹ s⁻¹ and the “kd GDF8” value [6, 13] was 0.00026 s⁻¹. For the same substance, the “ka BMP6” value [7] was 1.3e+08 M⁻¹ s⁻¹, the “kd BMP6” value [7] was 0.0074 s⁻¹ and the “ka GDF3” value [8] was 1.4e+06 M⁻¹ s⁻¹. The “kd GDF3” value [8] was 0.0022 s⁻¹.

“K55R (homodimeric ActRIIB-Fc construct) (Fc fusion)” gave an IC50 (ng/ml), A204 CAGA12 luciferase reporter assay [9] of 318 ng/mL, an IC50 (ng/ml), A204 CAGA12 luciferase reporter assay [10] of 206 ng/mL and an IC50 (ng/ml), A204 CAGA12 luciferase reporter assay [11] of 777 ng/mL.

For “L79H-F82K: homodimeric ActRIIB-G1Fc fusion with L79H and F82K substitutions; mature SEQ ID NO: 347”, the “binding to BMP9 compared to unmodified ActRIIB-Fc (in words)” value [1] was “decrease in binding to BMP9”, the “affinity for activin B compared to unmodified ActRIIB-Fc (in words)” value [2] was “relatively high affinity for activin B” and the “GDF11 binding compared to unmodified ActRIIB-Fc (in words)” value [3, 14] was “significant decrease in GDF8 and GDF11 binding”. For the same substance, the “activin A binding compared to ActRIIB-G1Fc (in words)” value [4] was “significant decrease”, the “BMP10 binding compared to ActRIIB-G1Fc (in words)” value [5] was “decrease in BMP10 binding” and the “GDF8 binding compared to unmodified ActRIIB-Fc (in words)” value [6, 14] was “significant decrease in GDF8 and GDF11 binding”.

In the case of “E50P (homodimeric ActRIIB-Fc construct) (Fc fusion)”, the IC50 (ng/ml), A204 CAGA12 luciferase reporter assay [9] is reported as 638 ng/mL, the IC50 (ng/ml), A204 CAGA12 luciferase reporter assay [10] is reported as 756 ng/mL and the IC50 (ng/ml), A204 CAGA12 luciferase reporter assay [11] is reported as 3000 ng/mL.

For “A24N (homodimeric ActRIIB-Fc construct) (Fc fusion)”, the IC50 (ng/ml), A204 CAGA12 luciferase reporter assay [9] was 99 ng/mL, the IC50 (ng/ml), A204 CAGA12 luciferase reporter assay [10] was 128 ng/mL and the IC50 (ng/ml), A204 CAGA12 luciferase reporter assay [11] was 409 ng/mL.

In the case of “E52A (homodimeric ActRIIB-Fc construct) (Fc fusion)”, the IC50 (ng/ml), A204 CAGA12 luciferase reporter assay [9] is reported as 71 ng/mL, the IC50 (ng/ml), A204 CAGA12 luciferase reporter assay [10] is reported as 198 ng/mL and the IC50 (ng/ml), A204 CAGA12 luciferase reporter assay [11] is reported as 359 ng/mL.

“E50K (homodimeric ActRIIB-Fc construct) (Fc fusion)” was tested, and the IC50 (ng/ml), A204 CAGA12 luciferase reporter assay [9] was 180 ng/mL, the IC50 (ng/ml), A204 CAGA12 luciferase reporter assay [10] was 132 ng/mL and the IC50 (ng/ml), A204 CAGA12 luciferase reporter assay [11] was 721 ng/mL.

“E52K (homodimeric ActRIIB-Fc construct) (Fc fusion)” was tested, and the IC50 (ng/ml), A204 CAGA12 luciferase reporter assay [9] was 296 ng/mL, the IC50 (ng/ml), A204 CAGA12 luciferase reporter assay [10] was 762 ng/mL and the IC50 (ng/ml), A204 CAGA12 luciferase reporter assay [11] was 10000 ng/mL.

Substance “K55D (homodimeric ActRIIB-Fc construct) (Fc fusion)” has an IC50 (ng/ml), A204 CAGA12 luciferase reporter assay [9] of 365 ng/mL, an IC50 (ng/ml), A204 CAGA12 luciferase reporter assay [10] of 396 ng/mL and an IC50 (ng/ml), A204 CAGA12 luciferase reporter assay [11] of 5500 ng/mL.

For “L79H: homodimeric ActRIIB-G1Fc fusion with L79H substitution; mature SEQ ID NO: 344”, the “binding to BMP9 compared to unmodified ActRIIB-Fc (in words)” value [1] was “decrease in binding to BMP9”, the “affinity for activin B compared to unmodified ActRIIB-Fc (in words)” value [2] was “relatively high affinity for activin B” and the “activin A binding compared to ActRIIB-G1Fc (in words)” value [4] was “significant decrease”. The “BMP10 binding compared to ActRIIB-G1Fc (in words)” value [5] was “decrease in BMP10 binding”.

In the case of “L79H-F82I: homodimeric ActRIIB-G1Fc fusion with L79H and F82I substitutions; mature SEQ ID NO: 341”, the “binding to BMP9 compared to unmodified ActRIIB-Fc (in words)” value [1] is reported as “decrease in binding to BMP9”, the “affinity for activin B compared to unmodified ActRIIB-Fc (in words)” value [2] is reported as “relatively high affinity for activin B” and the “activin A binding compared to ActRIIB-G1Fc (in words)” value [4] is reported as “significant decrease”. The “BMP10 binding compared to ActRIIB-G1Fc (in words)” value [5] was “decrease in BMP10 binding”.
